From patent US8349579B2, “Galectin-3 cleavage as a marker for matrix metalloproteinase activity in cancer” (Wayne State University, priority 2007, dated 2013)

Columns and labels:
MDA-MB-435 tumors = details: mice bearing MDA-MB-435 tumors, injection; cited from earlier work
MMP-9 = MMP-9 (Homo sapiens, UniProt P14780); experiment: Cleavage of recombinant galectin-3 proteins by activated MMP-9 (Western blot); assay type: biochemical; details: purified active MMP-9, 60 min, 37° C.
MMP-2 = target: T1, MMP-2 (Homo sapiens, UniProt P08253); experiment: Cleavage of recombinant galectin-3 proteins by activated MMP-2 (Western blot); assay type: biochemical; details: purified active MMP-2, 15 min, 37° C.
T1 sequence (P08253 110-660): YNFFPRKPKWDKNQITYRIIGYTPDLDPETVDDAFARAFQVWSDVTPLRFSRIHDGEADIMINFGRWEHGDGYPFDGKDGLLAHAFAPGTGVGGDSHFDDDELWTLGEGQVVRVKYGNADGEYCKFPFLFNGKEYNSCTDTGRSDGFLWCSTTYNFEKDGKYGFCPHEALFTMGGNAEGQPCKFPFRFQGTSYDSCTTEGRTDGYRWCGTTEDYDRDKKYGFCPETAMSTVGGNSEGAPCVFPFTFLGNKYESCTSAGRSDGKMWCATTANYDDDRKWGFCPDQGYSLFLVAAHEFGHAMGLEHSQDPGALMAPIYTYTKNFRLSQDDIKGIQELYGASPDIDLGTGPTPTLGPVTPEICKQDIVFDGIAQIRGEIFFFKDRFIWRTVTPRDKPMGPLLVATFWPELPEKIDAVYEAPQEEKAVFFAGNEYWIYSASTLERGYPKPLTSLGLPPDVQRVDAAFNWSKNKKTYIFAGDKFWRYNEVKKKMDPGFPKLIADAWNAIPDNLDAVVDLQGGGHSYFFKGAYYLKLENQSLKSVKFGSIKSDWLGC

[1] = tested on: gelatinolytic activity (MMP) in MCF10 DCIS.com xenograft sections; details: DQ gelatin, incubated with EDTA (2 mM in method, 20 mM in FIG. 5 legend)
Procedure: In situ zymography was performed on the fresh frozen DCIS xenografts as described by Mook et. al. (29). In brief, 8 micron thick cryosections were air dried, rehydrated with PBS for 5 min and overlaid with a solution of 50 μg/ml fluorescein-labeled gelatin (DQ gelatin; Molecular Probes, Eugene, Oreg.), 1% w/v low melting temperature agarose (BioWhittaker Molecular Applications, Rockland, Me.) and 5 μg/ml DAPI (Molecular Probes) in PBS in the presence or absence of 2 mM EDTA and incubated on ice for 15 min followed by incubation in a humidified chamber at 37° C. for 2 hr. Protease catalyzed hydrolysis of the heavily labeled and totally quenched DQ Gelatin relieved the intra-molecular self quenching, yielding brightly fluorescent peptide, which was visualized by using imaging microscope.

MMP-9, sequence (P14780 107-707 limits assumed): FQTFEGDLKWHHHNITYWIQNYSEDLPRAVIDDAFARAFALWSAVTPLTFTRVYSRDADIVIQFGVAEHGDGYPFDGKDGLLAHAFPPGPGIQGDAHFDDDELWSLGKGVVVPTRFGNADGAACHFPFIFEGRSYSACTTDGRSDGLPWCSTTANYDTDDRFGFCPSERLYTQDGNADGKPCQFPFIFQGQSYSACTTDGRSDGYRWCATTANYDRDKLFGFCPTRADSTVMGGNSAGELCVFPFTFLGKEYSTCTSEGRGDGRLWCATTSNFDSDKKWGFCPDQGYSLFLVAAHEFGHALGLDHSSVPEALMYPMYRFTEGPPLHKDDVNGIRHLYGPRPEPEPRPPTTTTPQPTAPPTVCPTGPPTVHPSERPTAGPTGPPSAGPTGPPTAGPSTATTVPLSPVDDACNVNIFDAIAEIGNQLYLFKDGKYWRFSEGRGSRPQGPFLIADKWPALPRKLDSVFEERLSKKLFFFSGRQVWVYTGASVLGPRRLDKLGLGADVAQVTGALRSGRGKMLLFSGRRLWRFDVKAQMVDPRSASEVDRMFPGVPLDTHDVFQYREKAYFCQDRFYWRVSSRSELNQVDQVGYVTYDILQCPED

Compound	tumor growth and metastasis (MDA-MB-435 tumors)	polypeptide produced upon incubation with MMP-9 (MMP-9) [kDa]	polypeptide produced upon incubation with MMP-2 (MMP-2) [kDa]	gelatinolytic activity in the stroma [1]
cleaved galectin-3 peptide containing 108-250 amino acids: cleaved galectin-3 peptide containing 108-250 amino acids, from the literature (ref. 37)	loss of tumor growth and metastasis			
A33G: recombinant galectin-3 mutant with A33G substitution		~22	~22	
Wild type galectin-3: recombinant human wild type galectin-3, isolated from a GST fusion protein		~22	~22	
O=C(O)CN(CCN(CC(=O)O)CC(=O)O)CC(=O)O [EDTA]				abrogated
